The data set concerns K4 kissing-loop RNA reporter. The data set is described as follows: apparent KD of K4 kissing-loop reporter; higher = weaker reporter binding. Conditions: Eterna round: R107. As to the method: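 RNA-MaP round R107: designed RNA switches with theophylline, tryptophan, arginine or FMN aptamers are transcribed on-chip within common flanks. They are titrated with a labelled K4 kissing-loop RNA reporter in RNA-MaP buffer (100 mM Tris pH 7.5, 80 mM KCl, 4 mM MgCl2), without ligand or with the indicated ligand. Median apparent KD per design.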

Where [1] appears, read: input ligand: theophylline 20 uM.
Where [2] appears, read: input ligand: tryptophan 2.4 mM.

Experimental findings from the supplement of paper PMC9170038 are described below.
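Further: bound reporter read as fluorescence of individual clusters on recovered sequencing chips by microscopy, with normalized cluster intensities fitted with a binding model.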

Consider “UGUGAUGUGUAGUGUAAUGUUUUGCGGGAUACCAGAGUCUUUUUAUUCCCUUGGCAGCUUGAGUGAUGUUUGAUGCUGUUCUUGU [llmdmullin]”, for which the “apparent KD of K4 kissing-loop reporter” value reads like this: (input ligand: FMN 200 uM) 519 nM; (input ligand: arginine 13.2 mM) 351 nM; (input ligand: none) 479 nM; under setting [1], 439 nM; under setting [2], 326 nM.

For the sequence “UUCGGCCUGACGGCCGCCACUUUGGGUAGUGAUGUUACCAACAUUCACCAGAUACAGGUUACUUCAAGGACCGGGUCAGACGGUG [theeternabot_exclusion_KL_Trp_B_45]”, the “apparent KD of K4 kissing-loop reporter” value (input ligand: FMN 200 uM) was 104 nM; the “apparent KD of K4 kissing-loop reporter” value (input ligand: arginine 13.2 mM) amounted to 100 nM; the “apparent KD of K4 kissing-loop reporter” value (input ligand: none) was found to be 121 nM; the “apparent KD of K4 kissing-loop reporter” value under setting [1] is 107 nM; the “apparent KD of K4 kissing-loop reporter” value under setting [2] was found to be 92.8 nM.

As for “GGUGACAACCAGAAGUGAUGUAUAGAAUAGCGAGGACCGGUACGGCCGCCACUCGUGAAGAGAAAGGAGUGAUGUUCCGUAAUGG [Kazoo C4]”, the “apparent KD of K4 kissing-loop reporter” value by setting is: (input ligand: FMN 200 uM) 250 nM; (input ligand: arginine 13.2 mM) 260 nM; (input ligand: none) 271 nM; under setting [1], 243 nM; under setting [2], 85.1 nM.

Turning to “UAAGAAUAAGUAGCAGUGAUGUUGCUACUACGAGGACCGGUACGGCCGCCACUCGAGCCGUACCAUAACAUCACUGAGGUACGAA [(H1)-(H2)-(Trp1)-(Trp2)-(T)'-(H)'-(T)'']”, the “apparent KD of K4 kissing-loop reporter” value is, setting by setting: (input ligand: FMN 200 uM) 231 nM; (input ligand: arginine 13.2 mM) 175 nM; (input ligand: none) 264 nM; under setting [1], 292 nM; under setting [2], 272 nM.

“CCGGCCCAGCCGGAUACCAGUGCGCCGCAGGGAACGGCGGGCCCAGAGUGAUGUUCGGGACACCCUUGGCAGCCGCCUGGGUCGC [#2 Same State - Theophylline B Attempt #27 (HarryS)]”: the “apparent KD of K4 kissing-loop reporter” value came to 234 nM (input ligand: FMN 200 uM); 197 nM (input ligand: arginine 13.2 mM); 309 nM (input ligand: none); 314 nM under setting [1]; 297 nM under setting [2].

For the sequence “AUACAGCGAAGCGCUAGUGAUGUUAGCGAAGGAGCGACUCAGGAGUCAGGUAGGUCGCGCUAAACAGGUUACGAGAGUAACCAGU [Arg A Ex t1]”, the “apparent KD of K4 kissing-loop reporter” value came to 142 nM (input ligand: FMN 200 uM); 120 nM (input ligand: arginine 13.2 mM); 140 nM (input ligand: none); 137 nM under setting [1]; 113 nM under setting [2].

“CCAGGAUGAUGAGGAUGAUAAAUUACUGAAGGAGCGCAUAUAGUUGCAGGUAGGUCGCGGUGAAUAAGUAUAGUGAUGUUAUACC [SSArgA.Aa]”: the “apparent KD of K4 kissing-loop reporter” value reads like this: (input ligand: FMN 200 uM) 379 nM; (input ligand: arginine 13.2 mM) 263 nM; (input ligand: none) 309 nM; under setting [1], 360 nM; under setting [2], 301 nM.

With “UGAUACCAGACUGAUACCAGCUAGUGAUGUUAGCUGAUAAACAAACAGGCAAAGCCUGCUAGCCCUUGGCAGCAGUCUGGUAUCU [TheoBX 12 #SwitchBubble #StaticStem]”, the “apparent KD of K4 kissing-loop reporter” value came out at 206 nM (input ligand: FMN 200 uM); 180 nM (input ligand: arginine 13.2 mM); 193 nM (input ligand: none); 359 nM under setting [1]; 202 nM under setting [2].

Turning to “UCGGCGGAGUGAUGUUCCUAUGUCCAAGAUACCAGUCUAUGAACGGACCCUUGGCAGCUUCCAUUAGGUUACUAUUUAGACUCAU [theeternabot_exclusion_KL_Theo_A_10]”, the “apparent KD of K4 kissing-loop reporter” value is, setting by setting: (input ligand: FMN 200 uM) 190 nM; (input ligand: arginine 13.2 mM) 227 nM; (input ligand: none) 215 nM; under setting [1], 248 nM; under setting [2], 166 nM.

For “UCCUAGGCUCGAAAGAGCCUAGGAUAUACUCAGGAUAUCCGGAAACGGAGAAGGGAGUAACUAGUGAUGUUAGGGAUUCCCUAUU”, the “apparent KD of K4 kissing-loop reporter” value was 260 nM (input ligand: FMN 200 uM); 96 nM (input ligand: arginine 13.2 mM); 109 nM (input ligand: none); 98.7 nM under setting [1]; 96.5 nM under setting [2].

“ACUUGAGCACAUAGCACACCAAGCAGUAGGUAGGAUAUCCGGCUUAGGAGAAGGACCAUGCAGUGAUGUUGCAUGCUCCUCCAUG [Zaribies]”: the “apparent KD of K4 kissing-loop reporter” value runs as follows: (input ligand: FMN 200 uM) 258 nM; (input ligand: arginine 13.2 mM) 95.8 nM; (input ligand: none) 76 nM; under setting [1], 92.3 nM; under setting [2], 99.9 nM.

In the case of “GGCAUGGUGACGCGGCGGCCAUGCACUUGGGAGGAUAUGUUUCGUGACAGAAGGCCCAGUGAUGUUGGGUCUGUUCAAAAGGACU [Riteveat]”, the “apparent KD of K4 kissing-loop reporter” value (input ligand: FMN 200 uM) was found to be 491 nM; the “apparent KD of K4 kissing-loop reporter” value (input ligand: arginine 13.2 mM) is 170 nM; the “apparent KD of K4 kissing-loop reporter” value (input ligand: none) stood at 192 nM; the “apparent KD of K4 kissing-loop reporter” value under setting [1] came out at 174 nM; the “apparent KD of K4 kissing-loop reporter” value under setting [2] was determined as 141 nM.

Consider “AGAGUUAUGCGAGGAUAUGCAGUUAGUACUCAAAGAGUACUAACGGCAGAGUGAUGUUCUGUGAAAGCAGAAGGUGCAUAACUCA [Omei KL FMN B SS B v8]”, for which the “apparent KD of K4 kissing-loop reporter” value (input ligand: FMN 200 uM) came to 195 nM; the “apparent KD of K4 kissing-loop reporter” value (input ligand: arginine 13.2 mM) is 837 nM; the “apparent KD of K4 kissing-loop reporter” value (input ligand: none) is 1370 nM; the “apparent KD of K4 kissing-loop reporter” value under setting [1] was 857 nM; the “apparent KD of K4 kissing-loop reporter” value under setting [2] amounted to 923 nM.

On to “UUGUUAUGAUAAAAUCCUGUUUGAUAAAGACAGGAUAUAGAAAAUACUAGAAGGGUCAUUAUAUGCAGUGAUGUUGCAAAUAAGU [Exclusion FMN A Gf 22]”, for which the “apparent KD of K4 kissing-loop reporter” value (input ligand: FMN 200 uM) turned out to be 41 nM; the “apparent KD of K4 kissing-loop reporter” value (input ligand: arginine 13.2 mM) is 60.8 nM; the “apparent KD of K4 kissing-loop reporter” value (input ligand: none) was 38.4 nM; the “apparent KD of K4 kissing-loop reporter” value under setting [1] amounted to 55.1 nM; the “apparent KD of K4 kissing-loop reporter” value under setting [2] was found to be 35 nM.

Consider “GGCACUUUUGGUAGAAAACAUCUACCUCUAUAGGAUAUGCCGAAAGGCAGAAGGAUAGACCUACAGAGUGAUGUUCUGCGUGCCU”, for which the “apparent KD of K4 kissing-loop reporter” value (input ligand: FMN 200 uM) was 874 nM; the “apparent KD of K4 kissing-loop reporter” value (input ligand: arginine 13.2 mM) came out at 143 nM; the “apparent KD of K4 kissing-loop reporter” value (input ligand: none) stood at 447 nM; the “apparent KD of K4 kissing-loop reporter” value under setting [1] amounted to 356 nM; the “apparent KD of K4 kissing-loop reporter” value under setting [2] stood at 283 nM.

With “CGAGUCCUGAGGAGUGAUGUUCCUCGGCCACGAGGACCGGUACGGCCGCCACUCGUUACUCGGGCUUAGUGGCUAGCACUAAGCU [Tirete]”, the “apparent KD of K4 kissing-loop reporter” value (input ligand: FMN 200 uM) came out at 200 nM; the “apparent KD of K4 kissing-loop reporter” value (input ligand: arginine 13.2 mM) turned out to be 249 nM; the “apparent KD of K4 kissing-loop reporter” value (input ligand: none) worked out at 203 nM; the “apparent KD of K4 kissing-loop reporter” value under setting [1] is 238 nM; the “apparent KD of K4 kissing-loop reporter” value under setting [2] is 118 nM.

In the case of “AAAAUAAAUAGCAGUCAUGGAGUGAUGUUCCGAGGACCGGUACGGCCGCCACUCGACCAUCAUAAGAUGGAUGGCGAAGACUGCA [#SwitchBubble 24 #K4Early]”, the “apparent KD of K4 kissing-loop reporter” value (input ligand: FMN 200 uM) worked out at 515 nM; the “apparent KD of K4 kissing-loop reporter” value (input ligand: arginine 13.2 mM) turned out to be 544 nM; the “apparent KD of K4 kissing-loop reporter” value (input ligand: none) was 483 nM; the “apparent KD of K4 kissing-loop reporter” value under setting [1] amounted to 445 nM; the “apparent KD of K4 kissing-loop reporter” value under setting [2] came to 864 nM.

Consider “CAGUUCCGUAGUGAUGUUACGAUCUCUGAUACCAGACAACUCUAAGUCCCUUGGCAGCAGUCAUUUUGCUUAAUAUUUACUCAAA [#08 K4 Theophylline A Exclusion]”, for which the “apparent KD of K4 kissing-loop reporter” value worked out at 126 nM (input ligand: FMN 200 uM); 139 nM (input ligand: arginine 13.2 mM); 136 nM (input ligand: none); 170 nM under setting [1]; 116 nM under setting [2].

Consider “GGAUGCAUUUUGGAUACCAGUCUAGUGAUGUUAGACUGAUAAUAACGGGCAGCGUUGGCAGACCCUUGGCAGCCAAAAUACUUAA [theeternabot_exclusion_KL_Theo_B_33]”, for which the “apparent KD of K4 kissing-loop reporter” value is, setting by setting: (input ligand: FMN 200 uM) 62.2 nM; (input ligand: arginine 13.2 mM) 64.6 nM; (input ligand: none) 54.8 nM; under setting [1], 63.9 nM; under setting [2], 58.9 nM.

Take “UACUAUAGUGAUGUUAUAGAUAAACCAGAUACCAGUGUAACAUAACACCCUUGGCAGCUGAUGAGGGAACAUAUGAAUGCAUAUG [AstrosSSTHe-A#5newdesignED5.11]”: the “apparent KD of K4 kissing-loop reporter” value was determined as 196 nM (input ligand: FMN 200 uM); 166 nM (input ligand: arginine 13.2 mM); 179 nM (input ligand: none); 178 nM under setting [1]; 163 nM under setting [2].

For the sequence “UGAUAGGACAGAAGGAGCGGAAGUGAUGUUUCCAAAAGAUAUGAUCGACAAAGUCGAUUUUUCCAGGUAGGUCGCUGUCCUAUCU [KL-XARG-B19]”, the “apparent KD of K4 kissing-loop reporter” value by setting is: (input ligand: FMN 200 uM) 60.5 nM; (input ligand: arginine 13.2 mM) 84.9 nM; (input ligand: none) 66.8 nM; under setting [1], 100 nM; under setting [2], 66.6 nM.

In the case of “UUCGUCGCGCAUGAUACCAGCGAGAUUUAACGCCGAAUCCUCACGCAGUGAUGUUGCACCCGCCCUUGGCAGCAUAGCCGGUUAC [theeternabot_sameState_KL_Theo_B_13]”, the “apparent KD of K4 kissing-loop reporter” value came to 250 nM (input ligand: FMN 200 uM); 304 nM (input ligand: arginine 13.2 mM); 328 nM (input ligand: none); 344 nM under setting [1]; 199 nM under setting [2].
